In data set [1] the target is TaXPD 100C-238C C (crosslinked) (Thermoplasma acidophilum) (UniProt Q9HM14). Kind of data set: fluorescence anisotropy. Conditions: Anisotropy: 20 mM MES pH 6.4, 1 mM DTT, 1 mM MgCl2, 100 nM DNA, +/- 1 mM AMPPNP, temperature not stated; trapping: 20 mM Tris-HCl pH 8.3-8.5, 50 mM NaCl, 4 C …. In general terms: Fluorescence polarisation rises when a labelled molecule tumbles more slowly, as on binding a larger partner.

Data set [2] addresses TaXPD 107C-312C C (crosslinked) (Thermoplasma acidophilum) (UniProt Q9HM14). Put plainly: fluorescence anisotropy. Particulars: Anisotropy: 20 mM MES pH 6.4, 1 mM DTT, 1 mM MgCl2, 100 nM DNA, +/- 1 mM AMPPNP, temperature not stated; trapping: 20 mM Tris-HCl pH 8.3-8.5, 50 mM NaCl, 4 C ….

Several values for one entry are separate records, joined by “and”; a condition that tells them apart may be missing. Identical values can stand only once.

“TACGACAGAGAAGAGACGAGCATTTTTGCTCGGAAGGA [3'-fluorescein hairpin DNA with 5' overhang]”: the equilibrium dissociation constant (Kd) – broadly, the constant that tells how readily two partners part at equilibrium – in data set [1] was 600 nM and 500 nM; in data set [2], 300 nM and 400 nM.

For the origin of these results see PMC4824113.
